In patent US20080311122A1, “Antagonists of Hmgb1 and/or Rage and Methods of Use Thereof” (Medimmune, LLC, priority 2005, published 2008):

B1: E11: human anti-HMG1 antibody, recognizes HMG1 A-Box; VL/VH aa SEQ ID NO: 24/26 (antibody, listed as Homo sapiens, V domains shown)
VH: EVQLLESGGGLVQPGGSLRLSCAASGFTFSRYQMNWVRQAPGKGLEWVSSISPSGGHTHYADSVKGRFTISRDNSKNTLYLQMNSLRAEDTAVYYCAKDGRQGKISTVDHWGQGTLVTVSS
VL: AQDIQMTQSPGTLSLSPGERATLSCRASQSVRSNFLAWYQQKPGQAPRLLIYGASRRASGIPDRFSGSGFGADFTLSISRLEPEDFAVYYCQQYGSSPNTFGQGSRVEIK
B2: S16: human anti-HMG1 antibody, ATCC PTA-6259; VL/VH aa SEQ ID NO: 13/15 (antibody, listed as Homo sapiens, V domains shown)
VH: EVQLLESGGGLVQPGGSLRLSCAASGFTFSWYSMLWVRQAPGKGLEWVSYISPSGGFTNYADSVKGRFTISRDNSKNTLYLQMNSLRAEDTAVYYCARWDYNSGWYYDHWGQGTLVTVSS
VL: AQDIQMTQSPDTLSLSPGERATLSCRASQSVNSRNLAWYQQKPGQAPRLLIYGASTRATGIPDRFSGSVSGTEFTLTISSLQPDDFATYYCQQYNSYFTFGQGTKLEIK

Assays:
LPS-induced ALI = experiment: LPS induced acute lung injury (ALI) mouse model; format: in vivo; settings: percent protection, isotype control subtracted
Protocol: Induction of LPS-induced ALI: LPS (E. coli strain 01111:B4. Sigma, St. Louis, Mo.) was administered intranasally to isoflurane (Baxter Pharmaceuticals, Deerfield, Ill.) anesthetized adult BALB/c mice on day 1 at a dose of 5-10 ug per mouse in 50-100 μl. For determination of HMG1 levels animals were euthanized by CO2 asphyxiation at 4, 8, 24, 32 and 48 hours post LPS administration, and BronchoAlvcolar Lavarge (BAL) and other samples collected for protein analysis and histopathology. For treatment protocols 24 hours post LPS dosing, anti-HMGB1 antibodies, HMG1 A-box Fc fusion or controls were administered intraperitoneally (i.p.) at a dose of 10 mg/kg in 100 ul volumes. On day 3 (48 h post LPS dosing), animals were euthanized by CO2 asphyxiation and samples (BALs, blood, and lungs) collected for analysis.
BAL Sample Collection: lungs were flushed three times with ˜0.8 ml Phosphate buffered saline (PBS, pH 7.2, GIBCO, Rockville, Md.) using a syringe with a catheter tubing. BAL samples collected were centrifuged at 1,200 rpm for 10 min at 4 C, supernatant collected and stored at −80 C for protein (e.g. HMGB1) quantitation, and cells in pellet were resuspended and transferred to cytoslides, fixed, GIEMSA stained, and BAL cellularity determined visually with the aid of a microscope.

[1] = test system: active CIA mouse model of arthritis; experiment: Active collagen-induced arthritis (CIA) mouse model; format: in vivo; settings: percent protection, isotype control subtracted
Protocol: Induction of Active Collagen Induced Arthritis (CIA) in Mice: Six-eight week old male DBA/1J mice (Jackson Labs, Bar Harbor, Me.) were used. On day 0, isoflurane anesthetized animals were given an intradermal injection, at base of tail, of 200 μg bovine Type II collagen (CII) dissolved in 50 μl 0.1 N acetic acid and emulsified with an equal volume of complete Freund's adjuvant (Chondrex, Redmond, Wash.). Three weeks later on day 21 they were given a second similar intradermal injection of 100 μg of CII dissolved in 25 μl 0.1N acetic acid and emulsified with an equal volume of incomplete Freund's adjuvant (Difco, Detroit, Mich.).
Monitoring Disease in Mice: Beginning at day 14 all animals were observed daily to assess the status of the disease in their paws, which was done by assigning a qualitative clinical score to each of the paws. Every day, each animal has its 4 paws scored according to its state of clinical disease. The scoring is done by two observers, with at least one blinded. In addition, each mouse is weighed, to follow body weight changes, at the same time the paws are scored.
The grading scale for the 4 lateral digits of each paw are graded as involved or not involved, i.e., 1 or 0. For example, a maximally involved left rear paw would be scored: ankle=3, midfoot=3, digits=4 (clinical score=10 units) We would repeat this for each paw and sum the scores. […]

[2] = test system: heat inactivated S. aureus induced peritonitis; experiment: S. aureus mouse model of peritonitis; format: in vivo
Protocol: Induction of Peritonitis: Four-six week old female BALB/c mice were used. […] For determination of HMG1 levels on day 0 approximately 10^9 heat inactivated S. aureus (strain 8325-4) cells premixed with 20 mg of galactosamine or galactosamine alone in a 200 μl volume of PBS was administered i.p. A third group of animals was not challenged. Animals were euthanized at 2, 8, and 12 hours after challenge by CO2 inhalation and blood was collected by cardiac puncture. For the antibody treatment studies on day 0 approximately 10^9 heat inactivated S. aureus (strain 8325-4) cells premixed with 20 mg of galactosamine were administered i.p. in a 200 μl volume and the following treatments were administered i.p. in a 100 μl volume 30 minutes prior to challenge as shown in Table 7.
The animals were also weighed 2× weekly. Animals showing signs of significant morbidity were euthanized. On day 15 all surviving animals were euthanized (euthanized sooner if significant morbidity observed).

[3] = target: T1, HMG1 (recombinant, native; immobilized, soluble) (Homo sapiens, UniProt P09429); experiment: Direct and sandwich (capture) ELISA comparing forms of HMG1; format: binding; settings: capture ELISA
T1 construct: made in house; host or cells: E. coli
T1 sequence (P09429 1-215): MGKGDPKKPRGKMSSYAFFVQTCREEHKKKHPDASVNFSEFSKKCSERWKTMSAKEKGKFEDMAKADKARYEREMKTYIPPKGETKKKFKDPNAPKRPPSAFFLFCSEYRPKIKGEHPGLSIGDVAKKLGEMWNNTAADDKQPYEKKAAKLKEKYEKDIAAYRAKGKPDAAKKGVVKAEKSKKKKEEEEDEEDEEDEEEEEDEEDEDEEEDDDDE
Procedure, shortened: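 Direct format: HMGB-1 coated at 5 μg/ml, human anti-HMG1 antibodies titrated, anti-human IgG-HRP, A450. Sandwich format: antibodies (from 20 μg/ml, serial dilutions) captured on anti-human IgG Fc, then soluble HMGB1 at 2 μg/ml (native 0.7 μg/ml), mouse anti-HMGB1 at 1 μg/ml, anti-mouse IgG-HRP, A450; steps 1 h, 37° C.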

Molecule | in vivo ALI (LPS-induced ALI) | in vivo CIA active [1] | mice survived ([2]; lethal dose of heat inactivated S. aureus) | in vivo S. aureus ([2]; percent protection, isotype control subtracted) | binding to native nuclear, necrotic (released) and activated HMG1 [3]
B1 | 37% | 0% | 8% | 8% | 
B2 |  |  |  |  | little difference in binding to the various native forms of HMG1
